These results are taken from the Immune Epitope Database (IEDB).

The target in one test is HLA-B*07:02. In words: IEDB peptide-MHC binding, purified MHC/direct/fluorescence; filed as Kd, often an IC50 or EC50 that approximates it; ≥ and ≤ were set here for values at or beyond the usual limits of such assays. Particulars: source organism: Cryptosporidium hominis.
Another test addresses HLA-A*01:01. Described as above.
Test [1] deals with HLA-B*57:01. The description is as above. Particulars: source organism: Cryptosporidium hominis.
The next test addresses HLA-B*48:01. The test is described as above.
Another test addresses HLA-B*40:01. The test is described as above.
The next test concerns the target HLA-B*18:01. The test is described as above. To be noted: source organism: Cryptosporidium hominis.
Another test addresses HLA-B*44:02. The description is as above. To be noted: source organism: Cryptosporidium hominis.
Another test concerns the target HLA-B*08:03. The description is as above. To be noted: source organism: Cryptosporidium parvum Iowa II.
Test [2] has as its target HLA-A*31:01. The description is as above.
The target in another test is HLA-B*58:01. The test is described as above.
For test [3], the target named is HLA-A*03:01. Described as above. To be noted: source organism: Cryptosporidium hominis.
The next test deals with HLA-C*08:02. The test is described as above.
For the next test, the target named is HLA-C*03:03. The description is as above. To be noted: source organism: Rickettsia rickettsii str. 'Sheila Smith'.
The next test has as its target HLA-C*12:03. The test is described as above.
Another test has as its target HLA-A*68:01. Nature of the test: IEDB peptide-MHC binding, purified MHC/competitive/radioactivity; filed as Kd, often an IC50 or EC50 that approximates it; ≥ and ≤ were set here for values at or beyond the usual limits of such assays. To be noted: source organism: Vaccinia virus WR.
For a further test, the target named is HLA-A*33:01. The description is as above. To be noted: source organism: Vaccinia virus WR.
In test [4] the target is HLA-A*31:01. The description is as above. Particulars: source organism: Vaccinia virus WR.
Test [5] addresses HLA-A*11:01. The test is described as above. Particulars: source organism: Vaccinia virus WR.
Test [6] concerns the target HLA-A*03:01. The test is described as above. To be noted: source organism: Vaccinia virus WR.
For test [7], the target named is HLA-B*57:01. In words: IEDB peptide-MHC binding, purified MHC/competitive/fluorescence; filed as Kd, often an IC50 or EC50 that approximates it; ≥ and ≤ were set here for values at or beyond the usual limits of such assays. Particulars: source organism: Vaccinia virus Copenhagen.
For another test, the target named is HLA-B*15:17. The description is as above. Particulars: source organism: Vaccinia virus Copenhagen.
Test [8] deals with HLA-A*11:01. Described as above. Particulars: source organism: Vaccinia virus Copenhagen.
The next test concerns the target HLA-B*15:01. Described as above. Particulars: source organism: Vaccinia virus Copenhagen.
Test [9] deals with HLA-A*03:01. The description is as above. To be noted: source organism: Vaccinia virus Copenhagen.
The target in the next test is HLA-B*27:05. Nature of the test: IEDB peptide-MHC binding, purified MHC/direct/fluorescence; filed as Kd, often an IC50 or EC50 that approximates it; ≥ and ≤ were set here for values at or beyond the usual limits of such assays. To be noted: source organism: Camelpox virus M-96.
For another test, the target named is HLA-B*15:09. The description is as above. To be noted: source organism: Variola virus.
The target in test [10] is HLA-B*39:01. The description is as above. Particulars: source organism: Variola virus.
Another test addresses HLA-B*08:01. The description is as above. Particulars: source organism: Variola virus.
A further test has as its target HLA-A*26:01. Described as above. To be noted: source organism: Variola virus.
The target of test [11] is HLA-A*02:01. The description is as above. To be noted: source organism: Camelpox virus M-96.
In test [12] the target is HLA-A*69:01. The test is described as above. Particulars: source organism: Camelpox virus M-96.
Another test deals with HLA-B*46:01. Nature of the test: IEDB peptide-MHC binding, purified MHC/competitive/fluorescence; filed as Kd, often an IC50 or EC50 that approximates it; ≥ and ≤ were set here for values at or beyond the usual limits of such assays. To be noted: source organism: Mus musculus.
Test [13] concerns the target HLA-B*39:01. The description is as above. To be noted: source organism: Mus musculus.
The target of the next test is HLA-B*27:03. The test is described as above. To be noted: source organism: Mus musculus.
The target in another test is HLA-B*51:01. The test is described as above. To be noted: source organism: Mus musculus.
Test [14] has as its target HLA-A*02:01. The test is described as above. To be noted: source organism: Mus musculus.
The target in test [15] is HLA-A*69:01. Described as above. Particulars: source organism: Mus musculus.
Setting [16] is: source organism: Cryptosporidium hominis.
Where [17] appears, read: source organism: Rickettsia rickettsii str. 'Sheila Smith'.
Setting [18] is: source organism: Camelpox virus M-96.

For FMKSRVYSI, the Kd with HLA-B*07:02, with HLA-A*01:01 (setting [16]), in the test with HLA-B*57:01 [1], with HLA-B*48:01 (setting [16]), with HLA-B*40:01 (setting [16]) and in the test with HLA-B*18:01 was at least 20 µM in each case. Besides, the Kd in the test with HLA-B*44:02 was at least 20 µM; in the test with HLA-B*08:03, 0.029 µM; in the test with HLA-A*31:01 [2] (setting [16]), at least 20 µM; with HLA-B*58:01 (setting [16]), at least 20 µM; in the test with HLA-A*03:01 [3], at least 20 µM.
As to FMPESSYLL, the Kd with HLA-C*08:02 (setting [17]) was at least 20 µM; in the test with HLA-C*03:03, 0.443 µM; in the test with HLA-C*12:03 (setting [17]), 0.707 µM.
As to FTDISMSLY, the Kd in the test with HLA-A*68:01 is 0.546 µM; with HLA-A*33:01 it was at least 77.7 µM; with HLA-A*31:01 [4], 10.7 µM; with HLA-A*11:01 [5], 2.53 µM; with HLA-A*03:01 [6], at least 32.2 µM; with HLA-A*01:01 (setting [18]), at most 0.001 µM. The Kd in the test with HLA-C*08:02 (source organism: Variola virus) worked out at 0.019 µM.
MTRVTNNVY: the Kd with HLA-B*57:01 [7] was 0.0986 µM; with HLA-B*15:17, at most 0.001 µM; with HLA-A*11:01 [8] it was at least 20 µM; in the test with HLA-B*15:01, 0.125 µM; in the test with HLA-A*03:01 [9] it was at least 20 µM; with HLA-A*01:01 (setting [18]), 2.59 µM. Further, the Kd with HLA-B*48:01 (setting [18]), with HLA-B*27:05, with HLA-B*40:01 (setting [18]), in the test with HLA-B*15:09, with HLA-B*39:01 [10] and with HLA-B*08:01 was at least 20 µM in each case. Also, the Kd with HLA-A*31:01 [2] (setting [18]) is at least 20 µM; in the test with HLA-A*26:01, 0.237 µM; with HLA-A*02:01 [11] it was at least 20 µM; with HLA-B*58:01 (source organism: Variola virus) it was 0.635 µM; with HLA-A*69:01 [12], at least 20 µM.
YTFCGTIEY: the Kd in the test with HLA-B*46:01 was 0.0114 µM; with HLA-B*39:01 [13], at least 20 µM; in the test with HLA-B*27:03 it was at least 20 µM; in the test with HLA-B*51:01, at least 20 µM; with HLA-A*02:01 [14], at least 20 µM; in the test with HLA-A*69:01 [15], at least 20 µM. Further, the results for the Kd in the test with HLA-C*08:02 (source organism: Mus musculus) and with HLA-C*12:03 (source organism: Mus musculus) were at least 20 µM and at most 0.001 µM, respectively.
